# According to the supplement of paper PMC9112550, “Optimization of the antimicrobial peptide Bac7 by deep mutational scanning” (BMC Biology, 2022):
# Tested on: Escherichia coli TOP10
# Test: shrunken log2 fold change of peptide-encoding DNA abundance (4.5 h post-induction vs induction); higher = less antimicrobial activity (less host growth inhibition)
# Conditions: time post-induction: 4.5 h; library: site-saturation at positions 5, 18, 19, 20
# 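Also: peptides expressed intracellularly from a pBAD plasmid library in pooled LB shake-flask culture, induced with 0.3% L-arabinose, DNA abundance read by NGS, three biological replicates, DESeq2 with apeglm shrinkage.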
row,Sequence,shrunken log2 fold change
1,RRIRLRPPRLPRPRPRPSCRPRP,-0.116
2,RRIRLRPPRLPRPRPRPSDCPRP,-0.336
3,RRIRLRPPRLPRPRPRPSDIPRP,-0.0623
4,RRIRLRPPRLPRPRPRPSDLPRP,-0.163
5,RRIRLRPPRLPRPRPRPSDSPRP,-0.498
6,RRIRLRPPRLPRPRPRPSFCPRP,-0.403
7,RRIRLRPPRLPRPRPRPSFKPRP,-0.572
8,RRIRLRPPRLPRPRPRPSFMPRP,-0.309
9,RRIRLRPPRLPRPRPRPSFWPRP,0.0795
10,RRIRLRPPRLPRPRPRPSGCPRP,0.345
11,RRIRLRPPRLPRPRPRPSIYPRP,-0.801
12,RRIRLRPPRLPRPRPRPSKDPRP,-0.364
13,RRIRLRPPRLPRPRPRPSLCPRP,-0.462
14,RRIRLRPPRLPRPRPRPSLFPRP,-0.373
15,RRIRLRPPRLPRPRPRPSMIPRP,-1.02
16,RRIRLRPPRLPRPRPRPSNIPRP,-0.103
17,RRIRLRPPRLPRPRPRPSNRPRP,-0.599
18,RRIRLRPPRLPRPRPRPSNTPRP,-0.624
19,RRIRLRPPRLPRPRPRPSPDPRP,0.164
20,RRIRLRPPRLPRPRPRPSPFPRP,-0.183
21,RRIRLRPPRLPRPRPRPSQFPRP,-0.12
22,RRIRLRPPRLPRPRPRPSRNPRP,-0.0105
23,RRIRLRPPRLPRPRPRPSRVPRP,0.00872
24,RRIRLRPPRLPRPRPRPSVPPRP,-0.185
25,RRIRLRPPRLPRPRPRPTACPRP,-0.0054

row,Sequence,shrunken log2 fold change
1,RRIRLRPPRLPRPRPRPTCEPRP,0.497
2,RRIRLRPPRLPRPRPRPTDHPRP,-0.323
3,RRIRLRPPRLPRPRPRPTENPRP,-0.171
4,RRIRLRPPRLPRPRPRPTEPPRP,0.0962
5,RRIRLRPPRLPRPRPRPTERPRP,-0.189
6,RRIRLRPPRLPRPRPRPTFFPRP,0.14
7,RRIRLRPPRLPRPRPRPTFPPRP,0.131
8,RRIRLRPPRLPRPRPRPTFVPRP,-0.162
9,RRIRLRPPRLPRPRPRPTGRPRP,0.105
10,RRIRLRPPRLPRPRPRPTHLPRP,-0.12
11,RRIRLRPPRLPRPRPRPTHPPRP,0.0349
12,RRIRLRPPRLPRPRPRPTKDPRP,-0.183
13,RRIRLRPPRLPRPRPRPTKLPRP,-0.0137
14,RRIRLRPPRLPRPRPRPTMIPRP,-0.164
15,RRIRLRPPRLPRPRPRPTMSPRP,-0.226
16,RRIRLRPPRLPRPRPRPTNTPRP,-0.375
17,RRIRLRPPRLPRPRPRPTQLPRP,0.221
18,RRIRLRPPRLPRPRPRPTQPPRP,0.634
19,RRIRLRPPRLPRPRPRPTSVPRP,-0.0387
20,RRIRLRPPRLPRPRPRPTTDPRP,-0.287
21,RRIRLRPPRLPRPRPRPTTPPRP,0.138
22,RRIRLRPPRLPRPRPRPTWFPRP,0.0207
23,RRIRLRPPRLPRPRPRPTYHPRP,-0.358
24,RRIRLRPPRLPRPRPRPTYQPRP,-0.229
25,RRIRLRPPRLPRPRPRPVAWPRP,0.225

row,Sequence,shrunken log2 fold change
1,RRIRLRPPRLPRPRPRPVDGPRP,0.0489
2,RRIRLRPPRLPRPRPRPVDHPRP,-0.0221
3,RRIRLRPPRLPRPRPRPVEMPRP,-0.0829
4,RRIRLRPPRLPRPRPRPVGGPRP,0.516
5,RRIRLRPPRLPRPRPRPVGYPRP,-0.0152
6,RRIRLRPPRLPRPRPRPVHDPRP,-0.458
7,RRIRLRPPRLPRPRPRPVIFPRP,-0.141
8,RRIRLRPPRLPRPRPRPVIWPRP,0.0724
9,RRIRLRPPRLPRPRPRPVKEPRP,0.0114
10,RRIRLRPPRLPRPRPRPVKFPRP,-0.316
11,RRIRLRPPRLPRPRPRPVKVPRP,-0.0103
12,RRIRLRPPRLPRPRPRPVLSPRP,-0.0937
13,RRIRLRPPRLPRPRPRPVMVPRP,-0.0863
14,RRIRLRPPRLPRPRPRPVNTPRP,-0.186
15,RRIRLRPPRLPRPRPRPVPAPRP,0.222
16,RRIRLRPPRLPRPRPRPVPSPRP,0.157
17,RRIRLRPPRLPRPRPRPVQYPRP,-0.0382
18,RRIRLRPPRLPRPRPRPVTCPRP,-0.125
19,RRIRLRPPRLPRPRPRPVTFPRP,-0.0737
20,RRIRLRPPRLPRPRPRPVTHPRP,-0.305
21,RRIRLRPPRLPRPRPRPVVQPRP,0.0325
22,RRIRLRPPRLPRPRPRPVVRPRP,0.148
23,RRIRLRPPRLPRPRPRPVWAPRP,0.424
24,RRIRLRPPRLPRPRPRPVYWPRP,-0.14
25,RRIRLRPPRLPRPRPRPWAWPRP,-0.0255

row,Sequence,shrunken log2 fold change
1,RRIRLRPPRLPRPRPRPWCAPRP,-0.0114
2,RRIRLRPPRLPRPRPRPWEKPRP,0.0916
3,RRIRLRPPRLPRPRPRPWEPPRP,0.0843
4,RRIRLRPPRLPRPRPRPWFFPRP,-0.155
5,RRIRLRPPRLPRPRPRPWGTPRP,-0.169
6,RRIRLRPPRLPRPRPRPWHAPRP,-0.194
7,RRIRLRPPRLPRPRPRPWIFPRP,-0.0453
8,RRIRLRPPRLPRPRPRPWIVPRP,-0.0907
9,RRIRLRPPRLPRPRPRPWKIPRP,0.095
10,RRIRLRPPRLPRPRPRPWKSPRP,0.0457
11,RRIRLRPPRLPRPRPRPWLLPRP,-0.172
12,RRIRLRPPRLPRPRPRPWMEPRP,0.00489
13,RRIRLRPPRLPRPRPRPWMHPRP,0.0873
14,RRIRLRPPRLPRPRPRPWNMPRP,-0.31
15,RRIRLRPPRLPRPRPRPWQPPRP,-0.0454
16,RRIRLRPPRLPRPRPRPWRFPRP,0.271
17,RRIRLRPPRLPRPRPRPWSKPRP,-0.547
18,RRIRLRPPRLPRPRPRPWTIPRP,-0.0385
19,RRIRLRPPRLPRPRPRPWTTPRP,-0.206
20,RRIRLRPPRLPRPRPRPWVSPRP,0.442
21,RRIRLRPPRLPRPRPRPWWTPRP,-0.312
22,RRIRLRPPRLPRPRPRPWWWPRP,-0.00192
23,RRIRLRPPRLPRPRPRPWYSPRP,-0.103
24,RRIRLRPPRLPRPRPRPWYVPRP,-0.125
25,RRIRLRPPRLPRPRPRPYAAPRP,-0.36

row,Sequence,shrunken log2 fold change
1,RRIRLRPPRLPRPRPRPYCWPRP,-0.37
2,RRIRLRPPRLPRPRPRPYFLPRP,-0.798
3,RRIRLRPPRLPRPRPRPYGNPRP,0.0303
4,RRIRLRPPRLPRPRPRPYGYPRP,-0.01
5,RRIRLRPPRLPRPRPRPYHFPRP,-0.26
6,RRIRLRPPRLPRPRPRPYHHPRP,-0.398
7,RRIRLRPPRLPRPRPRPYHNPRP,-0.712
8,RRIRLRPPRLPRPRPRPYHTPRP,-0.484
9,RRIRLRPPRLPRPRPRPYICPRP,-0.0262
10,RRIRLRPPRLPRPRPRPYIRPRP,-1.62
11,RRIRLRPPRLPRPRPRPYITPRP,-0.716
12,RRIRLRPPRLPRPRPRPYKPPRP,-0.789
13,RRIRLRPPRLPRPRPRPYKWPRP,-0.0271
14,RRIRLRPPRLPRPRPRPYLFPRP,-0.602
15,RRIRLRPPRLPRPRPRPYLRPRP,-0.132
16,RRIRLRPPRLPRPRPRPYMIPRP,-0.449
17,RRIRLRPPRLPRPRPRPYNLPRP,-0.417
18,RRIRLRPPRLPRPRPRPYQGPRP,-0.388
19,RRIRLRPPRLPRPRPRPYQSPRP,-0.524
20,RRIRLRPPRLPRPRPRPYRNPRP,-1.13
21,RRIRLRPPRLPRPRPRPYRYPRP,-0.254
22,RRIRLRPPRLPRPRPRPYSSPRP,-0.203
23,RRIRLRPPRLPRPRPRPYTDPRP,-0.348
24,RRIRLRPPRLPRPRPRPYTMPRP,-0.923
25,RRIRMRPPRLPRPRPRPAFGPRP,1.05

row,Sequence,shrunken log2 fold change
1,RRIRMRPPRLPRPRPRPAGFPRP,0.733
2,RRIRMRPPRLPRPRPRPAHFPRP,0.152
3,RRIRMRPPRLPRPRPRPAHTPRP,0.709
4,RRIRMRPPRLPRPRPRPAIEPRP,0.112
5,RRIRMRPPRLPRPRPRPALGPRP,0.625
6,RRIRMRPPRLPRPRPRPAMDPRP,1.27
7,RRIRMRPPRLPRPRPRPAMYPRP,2.95
8,RRIRMRPPRLPRPRPRPAPCPRP,0.835
9,RRIRMRPPRLPRPRPRPAPWPRP,0.807
10,RRIRMRPPRLPRPRPRPARFPRP,0.251
11,RRIRMRPPRLPRPRPRPARPPRP,1.09
12,RRIRMRPPRLPRPRPRPASGPRP,0.652
13,RRIRMRPPRLPRPRPRPATNPRP,0.499
14,RRIRMRPPRLPRPRPRPATRPRP,1.58
15,RRIRMRPPRLPRPRPRPAWAPRP,0.663
16,RRIRMRPPRLPRPRPRPAWLPRP,0.818
17,RRIRMRPPRLPRPRPRPAYEPRP,0.0216
18,RRIRMRPPRLPRPRPRPAYNPRP,-0.236
19,RRIRMRPPRLPRPRPRPCAGPRP,0.213
20,RRIRMRPPRLPRPRPRPCEAPRP,0.807
21,RRIRMRPPRLPRPRPRPCGGPRP,1.19
22,RRIRMRPPRLPRPRPRPCHIPRP,-0.0247
23,RRIRMRPPRLPRPRPRPCIDPRP,0.428
24,RRIRMRPPRLPRPRPRPCINPRP,-0.0644
25,RRIRMRPPRLPRPRPRPCMDPRP,0.104
